Source: paper PMC9923923 (2023)
Each block holds one binder with its values, some of them ahead of it.

Experiments:
TLR4 = TLR4 (Homo sapiens, UniProt O00206); experiment: SPR
TLR4/MD2 complex = TLR4/MD2 complex (Homo sapiens, UniProt O00206); experiment: SPR
Chain of TLR4/MD2 complex (O00206 24-839, chain 1 of 2): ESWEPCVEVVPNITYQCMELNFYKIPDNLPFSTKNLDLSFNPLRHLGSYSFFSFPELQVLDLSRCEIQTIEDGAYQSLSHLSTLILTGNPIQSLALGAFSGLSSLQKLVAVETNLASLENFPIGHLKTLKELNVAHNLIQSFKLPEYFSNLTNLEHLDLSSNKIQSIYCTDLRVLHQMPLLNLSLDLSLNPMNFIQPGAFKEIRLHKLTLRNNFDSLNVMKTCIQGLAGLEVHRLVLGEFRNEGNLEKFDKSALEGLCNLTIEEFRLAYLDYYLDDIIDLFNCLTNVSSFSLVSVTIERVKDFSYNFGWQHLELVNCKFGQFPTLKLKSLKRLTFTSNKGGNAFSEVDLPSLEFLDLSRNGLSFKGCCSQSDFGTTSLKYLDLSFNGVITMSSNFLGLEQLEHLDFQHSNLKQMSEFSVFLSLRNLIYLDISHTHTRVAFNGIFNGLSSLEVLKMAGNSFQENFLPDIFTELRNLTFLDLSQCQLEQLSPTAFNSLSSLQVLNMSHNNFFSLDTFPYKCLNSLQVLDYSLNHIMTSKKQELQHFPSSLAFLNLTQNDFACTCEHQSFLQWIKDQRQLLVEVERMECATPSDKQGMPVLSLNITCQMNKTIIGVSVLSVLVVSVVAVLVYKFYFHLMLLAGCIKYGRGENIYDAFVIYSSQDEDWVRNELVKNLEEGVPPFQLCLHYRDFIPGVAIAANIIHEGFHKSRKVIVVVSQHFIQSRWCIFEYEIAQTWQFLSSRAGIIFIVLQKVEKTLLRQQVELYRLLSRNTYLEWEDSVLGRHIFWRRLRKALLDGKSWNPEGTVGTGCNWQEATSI
Chain of TLR4/MD2 complex (chain, as listed by the source, chain 2 of 2): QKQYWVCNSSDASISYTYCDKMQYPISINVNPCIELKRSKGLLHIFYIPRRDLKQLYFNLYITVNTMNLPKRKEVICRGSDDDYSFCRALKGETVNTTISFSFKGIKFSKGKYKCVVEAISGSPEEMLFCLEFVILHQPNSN

Chain of TLR4 (O00206 24-839): as the sequence (O00206 24-839, chain 1 of 2) above

B1: eCIRP (protein)
chain: MASDEGKLFVGGLSFDTNEQALEQVFSKYGQISEVVVVKDRETQRSRGFGFVTFENIDDAKDAMMAMNGKSVDGRQIRVDQAGKSSDNRSRGYRGGSAGGRGFFRGGRSRGRGFSRGGGDRGYGGGRFESRSGGYGGSRDYYASRSQGGSYGYRSSGGSYRDSYDSYATHNE
modifications: 5 nM PS-OMe miR130 (value in text)
- Kd (TLR4): 612 nM

B3: eCIRP (protein)
chain: B1 chain
modifications: 5 nM PS-OMe miR130
- Kd (TLR4/MD2 complex): 113 nM

More lines, now with the values ahead:

- Kd (TLR4/MD2 complex): 20 nM
- Kd (TLR4): 69.7 nM
B2: eCIRP (protein)
chain: B1 chain

- Kd (TLR4): 139 nM
B4: eCIRP (protein)
chain: B1 chain
modifications: 5 nM PS-OMe miR130 (value in legend)
